In article doi:10.1101/2022.08.03.502687 (bioRxiv, 2022):

Molecular target: the molecule itself
Experiment: single-molecule photobleaching subunit capture

| Protein | binding result |
| --- | --- |
| CLC-ec1 'WT' background (C85A/H234C) treated with glutaraldehyde (natural protein, Cy5-maleimide on H234C; cross-linked with glutaraldehyde (residues not stated)) MKTDTPSLETPQAARLRRRQLIRQLLERDKTPLAILFMAAVVGTLVGLAAVAFDKGVAWLQNQRMGALVHTADNYPLLLTVAFLASAVLAMFGYFLVRKYAPEAGGSGIPEIEGALEDQRPVRWWRVLPVKFFGGLGTLGGGMVLGREGPTVQIGGNIGRMVLDIFRLKGDEARHTLLATGAAAGLAAAFNAPLAGILFIIEEMRPQFRYTLISIKAVFIGVIMSTIMYRIFNCEVALIDVGKLSDAPLNTLWLYLILGIIFGIFGPIFNKWVLGMQDLLHRVHGGNITKWVLMGGAIGGLCGLLGFVAPATSGGGFNLIPIATAGNFSMGMLVFIFVARVITTLLCFSSGAPGGIFAPMLALGTVLGTAFGMVAVELFPQYHLEAGTFAIAGMGALLAASIRAPLTGIILVLEMTDNYQLILPMIITGLGATLLAQFTGGKPLYSAILARTLAKQEAEQLARSKAASASENT | binds |
| CLC-ec1 R230C/L249C on the 'WT' background (C85A/H234C), disulfide cross-linked (natural protein) MKTDTPSLETPQAARLRRRQLIRQLLERDKTPLAILFMAAVVGTLVGLAAVAFDKGVAWLQNQRMGALVHTADNYPLLLTVAFLASAVLAMFGYFLVRKYAPEAGGSGIPEIEGALEDQRPVRWWRVLPVKFFGGLGTLGGGMVLGREGPTVQIGGNIGRMVLDIFRLKGDEARHTLLATGAAAGLAAAFNAPLAGILFIIEEMRPQFRYTLISIKAVFIGVIMSTIMYCIFNCEVALIDVGKLSDAPCNTLWLYLILGIIFGIFGPIFNKWVLGMQDLLHRVHGGNITKWVLMGGAIGGLCGLLGFVAPATSGGGFNLIPIATAGNFSMGMLVFIFVARVITTLLCFSSGAPGGIFAPMLALGTVLGTAFGMVAVELFPQYHLEAGTFAIAGMGALLAASIRAPLTGIILVLEMTDNYQLILPMIITGLGATLLAQFTGGKPLYSAILARTLAKQEAEQLARSKAASASENT | binds |
